According to patent US11319368B2, “Treatment of hepatotoxicity with IL-11 antibody” (Singapore Health Services PTE LTD., priority 2019, dated 2022):

Columns and labels:
[1] = test system: early intestinal radiation injury; settings: 2 mg/kg/d from 2 days prior until 2 weeks after irradiation; cited from earlier work
[2] = test system: primary human hepatocytes; assay: IL11 effect on GSH and NOX4 in primary human hepatocytes; format: cell-based
[3] = test system: human hepatocytes; assay: rhIL11 versus rmIL11 on human hepatocytes; format: cell-based; settings: 10 ng ml^-1
[4] = test system: murine primary macrophages; settings: 10-100 ng/ml; cited from earlier work
[5] = test system: collagen-induced arthritis; settings: 0.3-100 μg/mouse/day, IP, 10 days; cited from earlier work
[6] = test system: mouse hepatocytes; format: cell-based; settings: 24 h
Description: (§1) Mouse hepatocytes (ABC-TC3928, AcceGen Biotech) were maintained in mouse hepatocyte medium (ABC-TM3928, AcceGen Biotech) supplemented with 1% Penicillin-streptomycin.

[7] = test system: Concanavalin A-induced T-cell-mediated hepatotoxicity; settings: 50-500 μg/kg, IP 2 hours prior to Concanavalin A; cited from earlier work
[8] = test system: Borrelia burgdorferi-infected mice; settings: 0.1-2 μg/mouse/day, 5 days/week for 3 weeks; cited from earlier work
[9] = test system: mouse livers; settings: 500 μg/kg, IV prior to WI/Rp injury; cited from earlier work
[10] = test system: GVHD; settings: 250 μg/kg, SC, twice daily; cited from earlier work
[11] = test system: heart; settings: 20 μg/kg, IV at the start of reperfusion; cited from earlier work
[12] = test system: clonogenic cells in intestinal crypts; settings: 100 μg/kg, SC prior to and after cytotoxic exposure; cited from earlier work
[13] = test system: kidney; settings: 100-1000 μg/kg, IP; 10 minutes prior to or 30-60 minutes following IR; cited from earlier work
[14] = test system: AILI; assay: rhIL11 or rmIL11 injection in APAP OD mice; format: in vivo, mouse
Description: FIGS. 10A to 10L. […] (A, B, K, L) 24 h. […] FC: fold change

[15] = test system: infection colitis; settings: 5 μg/kg, IP; cited from earlier work
[16] = test system: heart; settings: 8 μg/kg, IV 24 hours after ligation, then every 24 hours for 4 days; cited from earlier work
[17] = test system: nephrotoxic nephritis; settings: 800-1360 μg/kg, IP 2 hours prior, then once daily for 6 days; cited from earlier work
[18] = test system: activated murine CD4+ve T-cells; settings: 1-500 ng/ml; cited from earlier work
[19] = test system: intestinal inflammation; settings: mucosal sheets 10-10,000 ng/ml; rats 33 μg/kg alternate days 1 or 2 weeks; cited from earlier work
[20] = test system: primary human hepatocytes; assay: IL11 stimulation of primary human hepatocytes: ERK, JNK, CASP3, PI staining; format: cell-based
Description: PI^+ve cells were quantified with the flow cytometer (Fortessa, BD Biosciences) and analyzed with FlowJo version 7 software (TreeStar).

[21] = test system: rheumatoid arthritis; settings: up to 15 μg/kg weekly for 12 weeks (SC); cited from earlier work
[22] = test system: small intestinal mucosa; settings: 250 μg/kg; cited from earlier work
[23] = test system: active Crohn's disease; settings: 1 mg, weekly for 12 weeks, SC; 51 patients; cited from earlier work
[24] = test system: mouse hepatocytes; assay: rhIL11 versus rmIL11 on mouse hepatocytes; format: cell-based
Description: as §1

[25] = test system: IRI; settings: 500 μg/kg, IP one hour prior to IRI; cited from earlier work
[26] = target: IL-11Rα; settings: low affinity; cited from earlier work
[27] = test system: liver; settings: single subcutaneous injection 500 μg kg^-1
Description: (A) Effect of recombinant human IL11 (rhIL11, 10 ng ml^−1) or recombinant mouse IL11 (rmIL11, 10 ng ml^−1) on ERK, JNK and CASP3 activation status in mouse hepatocytes. (B) ALT levels in mouse hepatocyte supernatant following stimulation by rmIL11 (10 ng ml^−1) or by increasing doses of rhIL11 (1, 5, 10, 15 and 20 ng ml^−1). (C) Schematic of mice receiving a single subcutaneous injection of either saline, rhIL11, or rmIl11 (500 μg kg^−1). (D) Western blot analysis of hepatic p-ERK, p-JNK, and Cl. […] Dose-dependent inhibition effect of rhIL11 on rmIL11-induced (K) ALT secretion and (L) CASP3 activation by mouse hepatocytes. (A, B, K, L) 24 h. (B, K) Data are shown as mean±SD; (E, G) Data are shown as box-and-whisker with median (middle line), 25th-75th percentiles (box), and minimum-maximum values (whiskers). (B, K) Two-tailed, Tukey-corrected Student's t-test; (E) two-tailed Student's t-test; (G) two-tailed Dunnett's test.
The levels of alanine transaminase (ALT) or aspartate aminotransferase (AST) in mouse serum and hepatocyte supernatant were measured using ALT Activity (ab105134, Abcam) or AST (ab105135, Abcam) Assay Kits. […] All colorimetric assays were performed according to the manufacturer's protocol.
Western blots were carried out from hepatocyte and liver tissue lysates. […] Protein concentrations were determined by Bradford assay (Bio-Rad). […]

[28] = test system: ulcerative mucositis; settings: 50-100 μg/animal/day, SC; cited from earlier work
[29] = test system: chronic Hepatitis C and late stage liver disease; settings: 5 μg/kg, daily for 12 weeks, SC; 20 patients; cited from earlier work
[30] = target: T1, hIL11Rα (Homo sapiens, UniProt Q14626); settings: rhIL11:hIL11Rα, reported previously, reconfirmed; cited from earlier work
T1 construct: purchased SinoBiological 10252-H08H
T1 sequence (Q14626 23-422): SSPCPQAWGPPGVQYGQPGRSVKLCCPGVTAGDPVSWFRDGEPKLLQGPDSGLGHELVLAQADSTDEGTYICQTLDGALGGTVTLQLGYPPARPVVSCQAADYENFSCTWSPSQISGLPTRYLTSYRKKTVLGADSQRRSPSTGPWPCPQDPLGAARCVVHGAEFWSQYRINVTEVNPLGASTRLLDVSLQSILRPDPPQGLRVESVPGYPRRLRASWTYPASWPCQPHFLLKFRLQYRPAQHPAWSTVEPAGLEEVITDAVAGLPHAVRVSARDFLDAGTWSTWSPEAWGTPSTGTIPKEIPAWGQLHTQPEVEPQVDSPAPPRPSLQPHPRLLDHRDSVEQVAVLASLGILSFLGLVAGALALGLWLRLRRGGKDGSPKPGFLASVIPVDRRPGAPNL

[31] = test system: epithelial cell integrity; settings: oral 0.5 mg/kg/day, 12 days; cited from earlier work
[32] = subcutaneous injection, APAP OD

B1: rhIL11: Recombinant human IL11 (UniProtKB:P20809, Genscript) (protein)
chain: PGPPPGPPRVSPDPRAELDSTVLLTRSLLADTRQLAAQLRDKFPADGDHNLDSLPTLAMSAGALGALQLPGVLTRLRADLLSYLRHVQWLRRAGGSSLKTLEPELGTLQARLDRLLRRLQLLMSRLALPQPPPDPPAPPLAPPSSAWGGIRAAHAILGGLHLTLDWAVRGLLLLKTRL
early intestinal radiation injury [1]: The authors conclude that IL11 ameliorates early intestinal
GSH depletion ([2]; dose range and time course): stimulated dose-dependent GSH depletion
NOX4 expression ([2]; rhIL11 10 ng ml^-1): NOX4 upregulation
ERK and JNK signaling and hepatocyte death [3]: stimulated ERK and JNK signaling and hepatocyte death
secretion of pro-inflammatory cytokines by macrophages [4]: The authors conclude that IL11 inhibits the secretion of pro-
inflammation [5]: days) reduces inflammation in a murine model of collagen-
GSH levels in rmIL11 stimulated mouse cells [6]: clear, dose-dependent effects of rhIL11 in restoring GSH levels
liver necrosis [7]: Concanavalin A-induced T-cell-mediated hepatotoxicity reduces
survival [7]: liver necrosis and enhanced survival in mice.
arthritis and carditis [8]: weeks) reduces arthritis, but not carditis, in Borrelia burgdorferi-
protection from WI/Rp injury [9]: injury protects mouse livers. In vitro, pre-treatment with rhIL11
Graft-vs-Host-Disease [10]: The authors conclude that IL11 prevents Graft-vs-Host-Disease
adverse cardiac remodeling and apoptosis [11]: prevents adverse cardiac remodeling and apoptosis after
clonogenic cells in intestinal crypts [12]: cytotoxic exposure, protects clonogenic cells in intestinal crypts
renoprotection [13]: The authors conclude that IL11 is renoprotective based on pre-
hepatic ERK and JNK activation ([14]; 24 h following APAP administration): reduction in hepatic ERK and JNK activation
hepatic GSH levels after APAP ([14]; APAP injury): restored APAP-induced GSH depletion
reduction of serum ALT (severity of AILI) [14, 32]: 52%
reduction of serum AST (severity of AILI) [14, 32]: 39%
infection colitis [15]: IP) ameliorates infection colitis and is cytoprotective in TLR2-
post-MI scar volume [16]: then consecutively every 24 hours for 4 days reduces post-MI
ECM deposition [17]: nephrotoxic nephritis and then once daily for 6 days suppresses
immune response of CD4+ve T-cells [18]: CD4+ve T-cells and modulates, not represses, the immune
epithelial transport and inflammation [19]: acts as a modulator of epithelial transport or as an anti-
hepatocyte cell death, FACS (PI+ve cells) ([20]; 24 h): dose-dependent IL11-induced hepatocyte cell death
ERK and JNK activation, concurrent with CASP3 cleavage ([20]; time course): late (>6 h) and sustained ERK and JNK activation
patients with mild adverse effect (erythema with/without induration) at the injection site [21]: with/without induration) at the injection site was seen in 60.6% of
therapeutic benefit [21]: no therapeutic benefit
recovery from chemotherapy and radiation-induced mucosal damage [22]: Administration of rhIL11 (250 μg/kg) promotes recovery from
efficacy compared to prednisolone [23]: inferior as compared to prednisolone treatment.
ERK and JNK phosphorylation, CASP3 cleavage ([24]; 10 ng ml^-1, 24 h): had no effect
mouse hepatocyte cell death (ALT in supernatant) ([24]; 24 h): did not
hepatoprotection in IRI [25]: Hepatoprotective effects of rhIL11 in mice subjected to a single
Kd [26]: ~10 nM
hepatic ERK and JNK phosphorylation [27]: no effect on ERK or JNK phosphorylation
5-fluorouracil-induced ulcerative mucositis [28]: Administration of rhIL11 (50-100 μg/animal/day, SC) protects
serum ALT by study end [29]: Lower serum ALT was observed by study end. The most
Kd [30]: 50 nM
epithelial cell integrity during cyclophosphamide chemotherapy [31]: The authors suggest that IL11 maintains epithelial cell integrity
